Results: the nanobody polyreactivity screen of Harvey et al. (2022)

Assay: yeast display, Sf9 membrane polyspecificity reagent, FACS + sequencing; frameworks hold sequencing errors
Summary of the method: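 In a synthetic yeast display library (Saccharomyces cerevisiae BJ5465), nanobody expression was induced with galactose for 36–48 hours. FACS gates were set low and high (top ~1%) using anti-HA fluorescence for expression and streptavidin fluorescence for binding of the Sf9 membrane reagent. Each polyreactivity label is drawn from the gate of origin.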

| Sequence | polyreactivity (PSR sort gate) |
| --- | --- |
| QVQLVESCGGLVQAGGSLRLSCAASGLIFWKYAMGWYRQAPGKERELVAAITSGGSTNYADSVKGRFTISRDNAKNTVYLQMNSLKPEDTAVYYCNARSWFEYYWGQGTQVTVSS | high polyreactivity |
| QVQLVESCGGLVQAGGSLRLSCAASGRIFGIYSMGWYRQAPGKEREVVARITKSGGSTYYADSVKGRFTISRDNAKNTVYLQMNSLKPEDTAVYYCAASYYGKRDRAGPYYSFDYWGQGTQVTVSS | high polyreactivity |
| QVQLVESCGGLVQAGGSLRLSCAASGRTFGVYAMGWYRQAPGKERDLVAAINYSGGSTYYADSVKGRFTISRDNAKNTVYLQMNSLKPEDTAVYSCNKGPLISYAYRYYQPYDYWGQGTQVTVSS | low polyreactivity |
| QVQLVESCGGLVQAGGSLRLSCAASGRTFVTYAMGWYRQAPGKERELVAAISKRGSRTYYAYSVKGRFTISRDNAKNTVYLQMNSLKPEDTAVYYCNADPYRTSYDYWGQGTQVTVSS | high polyreactivity |
| QVQLVESCGGLVQAGGSLRLSCAASGRTFYGYAMGWYRQAPGKERELVAAITASGGSTNYADSVKGRFTISRDNAKNTVYLQMNSLKPEDTAVYYCAARVYYLGQFYWYGYWGQGTQVTVSS | high polyreactivity |
| QVQLVESCGGLVQAGGSLRLSCAASGRTFYKAMGWYRQAPGKERELVAASTTGGGTKYADSVKGRFTISRDNAQNTVYLQMNSLKPEDTAVYYCNTDEWYHFYHGAHKYDYWGQGTQVTVSS | low polyreactivity |
| QVQLVESCGGLVQAGGSLRLSCAASGSIFGTNAMGWYRQAPGKERELVASITRGGSTNYADSVKGRFTISRDNAKNTVYLQMNSLTPEDTAVYYCNAQGHWRWWGYDYWGQGTQVTVSS | low polyreactivity |
| QVQLVESCGGLVQAGGSLRLSCAASGSTFGYYTMGWYRQAPGKEREFVAAITRSTGSTFYADSVKGRFTISRDNAKNTVYLQMNRLKPEDTAVYDCAATQPWYNTRTRYGSWGQGTQVTVSS | low polyreactivity |
| QVQLVESCGGLVQAGGSLRLSCAASGSTFILYAMGWYRPAPGKERELVAAISWSTGITYYADSVKGRFTISRDNAKNTVYLPMNSLKPEDTAVYYCAADAWGYHDYDASYSTGYEYWGQGTQVTVSS | high polyreactivity |
| QVQLVESCGGLVQAGGSLRLSCAASGSTIVSNAMGWNRQAPGKERDLVAAITSGGTTNYADSVKGRFTISRDNAKNTVYLQMISLKPEETAVYYCAKRETVYYVNHPFTYSHDYCGQGTQVTVSS | low polyreactivity |
| QVQLVESCGGLVQAGGSLRLSCAASGYTFGYYAMGWYRQAPGKERELVAAISWRGARTNYADSVKGRFTISRDNAKNNVYLQMNSLKPEDTAVYYCNAPKHNTVYTDRYDYWGQGTQVTVSS | high polyreactivity |
| QVQLVESCGGLVQAGGSLRLSCAASGYTFRYYAMGWYRQAPGKERELVARITGRAGSTYYADSVKGRFTISRDNAKNTVYLQMNSLKPEDTAVYYCAASIREGFYWGHGTQVTVSS | high polyreactivity |
| QVQLVESCGGLVQAGGSLRLSCAASRLIFGYYAMGWYRQAPVKERELVASISSGGRTYYADSVKGRFTISRDNAKNTVNLQMNSLKPEDTAVYYCNAVKGWFVYEYDYWGQGTQVTVSS | low polyreactivity |
| QVQLVESCGGLVQAGGSLRLSCAATGLIIRGNDMVWYRQAPWKERELVAGINSSGSTNYADSVKVRFTISRDNAKNTVYLQMNSLKPEDTAVYYCAARAIVSFDYWGQGTQVTVSS | low polyreactivity |
| QVQLVESCGGLVQAGGSLRLSCAAYGSIFTFYAMGWYRQAPGKERELVAAISSGGDTYYADSVTGRFTISRDNAKNTVYLQMNSLKPEDTAVYYCAADWRGSYLYGYYYWGQGTQVTASS | low polyreactivity |
| QVQLVESCGGLVQAGGSLRLSCADSGRTFYKYAMGWYRPAPVKERELVAAITSGGGRTYYADSVKGRFTISRDNAKNTVYLQMNSLKPEDTAVYYCNAVLPLAKYEYDSWGQGTQVTVSS | high polyreactivity |
| QVQLVESCGGLVQAGGSLSLSCAASGSTFNHYAMGWYRQATGKEREFVAAISWSGGSTYYADYVQGRFTISRDNAKNTGYLQMNSLKPEDTAVYYCNAAVSQFSHRWRRRLTFDYWGQGTQVTVSS | high polyreactivity |
| QVQLVESCGVLVQAGGSLRLSCAASGFILYGNAMGWYRQAHGKERELVAAISRRGGSTYYADSVKGRFTISRDNAKNTVYLQMNSLKPEDTAVYYCAKDGPGGGTRIYDYWGLGTQVTVSS | high polyreactivity |
| QVQLVESDGGLVQAGGSLRLSCAASGYIFGGYAMRWYRHAPGKERELVAAISYGVGSTYYADSVKGRFTISRDNAKNTVYLQMNSLKPEDTAVYYCAADVFFYVYEAYLLYYWGQGTQVTVSS | low polyreactivity |
| QVQLVESEGGLVQAGGSLRLSCAASGFIFKYNDMGWYRQAPGKERELVAAIDVRTGLTYYADSVKGRFTISRDNAKTTVYLQMNSLKPEDPAVYYCNADYIQYAYDYWGQGTQVTVSS | high polyreactivity |
| QVQLVESGAGIVQAGGSLRLSCAASGNSYGYAMGWYRQAPGKERELVAAITSGASDTYYADSVKGRFTISRDNAKKTVYLQMNSLKPEDTAVYYCAAVDYTNRYDPYDYWGQGTQVTVSS | low polyreactivity |
| QVQLVESGAGIVQAGGSLRLSCAASGSILWHNAMGWYRQAPGKEREYVDAISARGTRTYYADSVKGRFTISRDNAKNTVYLQLKSLNPEDTAVYYCAARYWDDRARAEDYWGQVTQVTVSS | high polyreactivity |

| Sequence | polyreactivity (PSR sort gate) |
| --- | --- |
| QVQLVESGAGLFQAGGRLRLSCAASGRTFQVYAMAWYRHAPGTERELVAAIDLGGGSTYYADSVKGRFTISRDNAKNTVYLQMNSLKQEDTAVYYCAADVGLRFDYWGQGTQVTVSS | high polyreactivity |
| QVQLVESGAGLFQAGGRLRLSCAPSGSTFGTYAMGWYRQAPGKERELVAAITSGGSTDYADSVKGRFTISRDNAKNTVYLQMNSLKPEDTAVYYCNATWELLSYYYLFWGYDYWGQGTQVTVSS | low polyreactivity |
| QVQLVESGAGLFQAGGSLRLTCAPSGSIFAFNTMGLYRQAPGKERHLVAAITWGGGSTYYADSVKGRFTISRDNAKNTVYLQMYSLKPEDTAVYYCATKAKYGRQFLMEYWGQGTQVTVSS | high polyreactivity |
| QVQLVESGAGLLQAGGSLRLSCAASGFIFVTYAMGWYRQAPGKERELVAAITNSGGTTYYADSVKGRFTISRDNAKNTVYLQMISLKPEDTAVYYCNKAYGAETAHREFVYWGQGTQVTVSS | low polyreactivity |
| QVQLVESGAGLVHAGGSLRLSCAASGRIFNYYAMGWYRQAPGKESELVAGINWSGTRTYYADSVKGRFTISRDNAKITVYLQMNSLKPEDTAVYYCNAGRTWRAFTGDEYWVQGTQVTVSS | high polyreactivity |
| QVQLVESGAGLVKAGGSLRLSCASSGRILDFYDMGWYRQAPGKERELVAAITSGTSTYYADSVKGRFTISRDNAKYTVYLQMNSLKPEDTAVYYCAAAHVPVGQYVYWYDYWGQGTQVTVSS | low polyreactivity |
| QVQLVESGAGLVQAAGSLRLICASSGFILLDKAMGWYRQAPGKEREFVASINISGARTFYADSVKGRFTISRDTAKNTVYLQMNSLKPEDTAVYYCAKEPGWGRRSTTAYDYWGQGTQVTVSS | low polyreactivity |
| QVQLVESGAGLVQAAGSLRLSCAASGRTFSRNAMGWYRQAPGQERELVARIRSGGSTYYADSVKGRFTISRDNAKNTVYLQMNSLKPDETAVFYLAADRYGYQFDYWGQGTQVTVSS | high polyreactivity |
| QVQLVESGAGLVQAGGSLRISCAASGFIFNEYAMGWYRQAPGKERELVAAISSGGSTYYADSVKGRFTISRDNAKNTVYLLINSLKPEDTAVYYCNALRRSQPWKYDYWGPGTQVTVSS | low polyreactivity |
| QVQLVESGAGLVQAGGSLRISCAASGFTFAYYAMGWYRQAPGKEREFVAAITKGGGSTNYADSVKGRFTISRYNAKNTVYLQMNSLNPEDTAVYYCNADYFVWYIGRVFSRYGYWGQGTQVTVSS | low polyreactivity |
| QVQLVESGAGLVQAGGSLRISCAASGITFYRNAMGWYRQAPGKERELVAAITWNGGRTYYADSVKGRFTISRDNAKNTVYLQMNSLNPEDTAVYYCAKRYGSTQSRYDFWGPGTQVTVSS | high polyreactivity |
| QVQLVESGAGLVQAGGSLRISCAASGRIFYVYAMGWYRQAPGKEREFVASISWSGGSTYYADSVKGRFTISRDNANNTVLLQMNSLKPADTAVYYCNARAFTQRYDYWGQGTQVTVSS | low polyreactivity |
| QVQLVESGAGLVQAGGSLRISCAASGSIFTNAMGWYRQAPGKERELVAAISSSGGSTYYADSVKGRFTISRDNANNTVYLQMNSLKPEDTAVYYCAADHYGGRDYWGQGTQVTVSS | low polyreactivity |
| QVQLVESGAGLVQAGGSLRISCAASVITFIPYAMGWYRQAPGKERELLASISDGGGTNYADSVKGRFTISRDNAKNTVYLQMNSLKTEDTAVYYCATDASTYAYYGGYYWGHGTQVTVSS | low polyreactivity |
| QVQLVESGAGLVQAGGSLRLICAASGRTFYPNAMGWYRQAPGKERELVAAITYSGTRTYYADSVKGRFTISRDNAKNTVYLQMNSLKPEDTAVYYCAAVVGKIGFNYWGQGTQVTVSS | high polyreactivity |
| QVQLVESGAGLVQAGGSLRLSCAASGFIFLAYTMGWSRQGPAKERELVAAISTSGGSTYYADSVKGRFTISRDKAKNTVYLEMNSLKPEDTGVYYCAADYSYWRGYDSWGQGTQVTVSS | high polyreactivity |
| QVQLVESGAGLVQAGGSLRLSCAASGFIFYIYAMGWYRQAPGKEREFVAVISSSGGITYYADSVKGRFTISRDNAKNTFYLQMNSLKPEDTAVYYCARDTEGKYVGYGRGGYWGQGTQVTVSS | low polyreactivity |
| QVQLVESGAGLVQAGGSLRLSCAASGFTFPVYAMGWNRQAPGKERELVAAISWSGGGTYYADSVKGRFTISRDIAKNTVYLQMNSLNPEDTAVHYCAARWYYYPLMYDYWGQGTQVTVSS | low polyreactivity |
| QVQLVESGAGLVQAGGSLRLSCAASGGTFWKYAMGWYRQAPGKESELVAAITWSGSSTYYADSVKGRFTISRDNAKNTVFLLMKSLKPEDTAVYYCARYHVGPSYRYGYWGQGTQVTVSS | high polyreactivity |
| QVQLVESGAGLVQAGGSLRLSCAASGIIFPFYAMGWYRQAPGKEMELVAAITSDGNTNYADSVKGRFTFSRDNAKNTVYLQMNSLKPVDTAVYYCNAETQYAVLSWHSTRHDYWGQGTQVTLSS | low polyreactivity |
| QVQLVESGAGLVQAGGSLRLSCAASGRIFHWYAMGWYRQAPGKERELVATANTSYADSVKGRFTISRDNAKNTVYLQMNSLKPEDTAVYYCATVGPRGRSLGDYWGQVTQVTVSS | low polyreactivity |
